Substrate in data set [1]: CC1CS(=O)(=O)CCN1/N=C/c1ccc([N+](=O)[O-])o1
Nature of the data set: purified protein. Format: biochemical, Trypanosoma cruzi. To be noted: 100 μM NADH fixed.

Substrate in data set [2]: O=C(Cn1ccnc1[N+](=O)[O-])NCc1ccccc1
Nature of the data set: purified protein. Format: biochemical, Trypanosoma cruzi. The following applies: 100 μM NADH fixed; benznidazole 10–100 μM.

B1: TcNTR (61S, catalytic domain) (Trypanosoma cruzi strain CL Brener) (protein)
chain: LDAMKRVVHERRSCKRFDPTKSIDLDVVSDLLAMTVRAPTALNLQPWVAVVIHEEEQRETLSRAALGQPQPRDAPVTVVFAGDMEPESNAPAALEMGLESGYYHSLYGAAYLRHAYYLLHGGPCEVMSHVKAIVSAWYSESTGNAMLSVPRNKQAYAWKQVMIPATTFLYLATAAGFDTAILEGFDEAQVRRVAGLPPRFTVPVIISVGHGAKNGFHSVRSPRFPTKHLVRWGKF
Take B1: the results for the Michaelis constant (Km) in data set [1] and in data set [2] were 15.5 ± 3.5 µM and 28.0 ± 2.7 µM, respectively.

The values above are taken from publication PMC3379838.
